# Assay results reported in publication PMC8031885.
# Key:
# [1] = biological target: gH/gL/gO trimer of HCMV TB40-BAC4 (human cytomegalovirus, strain TB40/E (TB40-BAC4))
# PDGF-BB [2] = biological target: PDGF-BB (UniProt P01127)
# PDGF-BB [3] = biological target: PDGF-BB (UniProt P01127); remark: listed apart in the source
# [4] = biological target: gH/gL/gO trimer of HCMV TB40-BAC4 (human cytomegalovirus, strain TB40/E (TB40-BAC4)); remark: listed apart in the source
# [5] = biological target: gH/gL/gO trimer of HCMV TB40-BAC4 (human cytomegalovirus, strain TB40/E (TB40-BAC4)); remark: listed apart in the source
# Chain of PDGF-BB (P01127 82-190): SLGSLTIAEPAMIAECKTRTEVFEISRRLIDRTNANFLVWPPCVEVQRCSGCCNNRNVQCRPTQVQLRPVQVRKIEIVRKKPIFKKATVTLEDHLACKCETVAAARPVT
# Chain of PDGFRα-Fc delN204-Y206 (P16234 other isoform, or with tags, fused parts or gaps, stated change not applied): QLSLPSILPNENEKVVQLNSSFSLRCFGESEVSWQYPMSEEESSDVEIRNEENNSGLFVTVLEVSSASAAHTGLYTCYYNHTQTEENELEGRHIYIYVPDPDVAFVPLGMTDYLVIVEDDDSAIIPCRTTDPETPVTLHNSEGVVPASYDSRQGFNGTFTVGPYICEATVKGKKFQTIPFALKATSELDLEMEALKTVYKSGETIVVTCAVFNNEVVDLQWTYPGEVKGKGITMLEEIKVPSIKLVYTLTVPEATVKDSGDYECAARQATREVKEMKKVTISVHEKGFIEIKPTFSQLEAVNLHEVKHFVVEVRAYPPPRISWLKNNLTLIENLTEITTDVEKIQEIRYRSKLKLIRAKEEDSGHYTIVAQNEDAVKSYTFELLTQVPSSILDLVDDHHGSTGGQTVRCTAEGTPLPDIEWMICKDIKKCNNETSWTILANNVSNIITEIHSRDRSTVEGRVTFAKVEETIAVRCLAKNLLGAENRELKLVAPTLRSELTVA
# Chain of PDGFRα-Fc delM133-I139 (P16234 other isoform, or with tags, fused parts or gaps, stated change not applied): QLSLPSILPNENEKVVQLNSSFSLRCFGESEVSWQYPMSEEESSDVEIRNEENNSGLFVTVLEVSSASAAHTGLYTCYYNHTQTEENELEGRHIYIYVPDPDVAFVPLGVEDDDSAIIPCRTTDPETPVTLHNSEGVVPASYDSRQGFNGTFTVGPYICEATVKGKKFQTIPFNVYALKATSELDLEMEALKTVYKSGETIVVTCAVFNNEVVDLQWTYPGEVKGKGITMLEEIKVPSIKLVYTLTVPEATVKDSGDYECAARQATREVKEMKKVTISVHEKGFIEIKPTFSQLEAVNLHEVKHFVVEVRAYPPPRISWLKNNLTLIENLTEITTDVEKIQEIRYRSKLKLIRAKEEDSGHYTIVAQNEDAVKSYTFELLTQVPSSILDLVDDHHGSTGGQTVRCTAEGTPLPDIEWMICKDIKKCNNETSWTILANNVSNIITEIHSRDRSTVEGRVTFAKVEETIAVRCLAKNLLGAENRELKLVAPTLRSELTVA
# Chain of PDGFRα-Fc delQ294-E298 (P16234 other isoform, or with tags, fused parts or gaps, stated change not applied): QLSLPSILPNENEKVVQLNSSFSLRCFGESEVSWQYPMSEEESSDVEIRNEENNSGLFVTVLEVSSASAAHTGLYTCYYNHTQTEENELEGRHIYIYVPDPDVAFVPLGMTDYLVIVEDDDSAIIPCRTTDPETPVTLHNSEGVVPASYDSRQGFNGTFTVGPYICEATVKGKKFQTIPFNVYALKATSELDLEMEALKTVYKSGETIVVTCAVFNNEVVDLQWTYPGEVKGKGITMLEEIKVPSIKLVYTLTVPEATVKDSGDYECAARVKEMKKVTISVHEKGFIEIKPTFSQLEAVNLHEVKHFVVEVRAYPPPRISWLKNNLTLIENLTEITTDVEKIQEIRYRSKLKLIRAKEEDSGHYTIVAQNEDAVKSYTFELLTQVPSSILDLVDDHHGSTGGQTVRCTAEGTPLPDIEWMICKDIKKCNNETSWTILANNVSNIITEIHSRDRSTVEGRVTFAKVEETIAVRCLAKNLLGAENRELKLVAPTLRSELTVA
substance,measurement,setting,value
PDGFRα-Fc E298A (from UniProt P16234-1 24-528) (Fc fusion),"inhibition of HCMV TB40-BAC4-IE-GLuc infection of fibroblasts (Gaussia luciferase read-out), against wild type (fold increase of the inhibitory effect)",[1],3
PDGFRα-Fc I139A (from UniProt P16234-1 24-528) (Fc fusion),"reduction of Akt phosphorylation induced by 50 ng/ml PDGF-BB in fibroblasts, phospho-Akt immunoblot, 4,000 ng/ml PDGFRα-Fc",PDGF-BB [2],20%
same,"inhibition of HCMV TB40-BAC4-IE-GLuc infection of fibroblasts (Gaussia luciferase read-out), against wild type (fold decrease of the efficiency)",[1],4
same,"reduction of p-Akt signal induced by 6 ng/ml PDGF-BB in fibroblasts, quantitative immunoblot, 4000 ng/ml PDGFRα-Fc",PDGF-BB [3],80%
PDGFRα-Fc I139L (from UniProt P16234-1 24-528) (Fc fusion),"HCMV inhibition EC50 (TB40-BAC4-IE-GLuc, fibroblasts, immediate-early antigen staining)",[4],6.6 ng/mL
PDGFRα-Fc I139V (from UniProt P16234-1 24-528) (Fc fusion),"HCMV inhibition EC50 (TB40-BAC4-IE-GLuc, fibroblasts, immediate-early antigen staining)",[4],9.5 ng/mL
PDGFRα-Fc Q294A (from UniProt P16234-1 24-528) (Fc fusion),"inhibition of HCMV TB40-BAC4-IE-GLuc infection of fibroblasts (Gaussia luciferase read-out), against wild type (fold increase of the inhibitory effect)",[1],3
PDGFRα-Fc T296A (from UniProt P16234-1 24-528) (Fc fusion),"inhibition of HCMV TB40-BAC4-IE-GLuc infection of fibroblasts (Gaussia luciferase read-out), against wild type (fold increase of the inhibitory effect)",[1],3
PDGFRα-Fc Y206A (from UniProt P16234-1 24-528) (Fc fusion),"reduction of Akt phosphorylation induced by 50 ng/ml PDGF-BB in fibroblasts, phospho-Akt immunoblot, 4,000 ng/ml PDGFRα-Fc",PDGF-BB [2],60%
same,"inhibition of HCMV TB40-BAC4-IE-GLuc infection of fibroblasts (Gaussia luciferase read-out), against wild type (fold decrease of the efficiency)",[1],4
PDGFRα-Fc Y206F (from UniProt P16234-1 24-528) (Fc fusion),"HCMV inhibition EC50 (TB40-BAC4-IE-GLuc, fibroblasts, immediate-early antigen staining)",[4],5.9 ng/mL
PDGFRα-Fc delM133-I139 (from UniProt P16234-1 24-528) (Fc fusion),"inhibition of HCMV TB40-BAC4-IE-GLuc infection of fibroblasts (Gaussia luciferase read-out), 4,000 to 1 ng/ml; EC50 against wild type (fold higher EC50 than wild type)",[5],10
PDGFRα-Fc delN204-Y206 (from UniProt P16234-1 24-528) (Fc fusion),"inhibition of HCMV TB40-BAC4-IE-GLuc infection of fibroblasts (Gaussia luciferase read-out), 4,000 to 1 ng/ml; EC50 against wild type (fold higher EC50 than wild type)",[5],10
PDGFRα-Fc delQ294-E298 (from UniProt P16234-1 24-528) (Fc fusion),"inhibition of HCMV TB40-BAC4-IE-GLuc infection of fibroblasts (Gaussia luciferase read-out), 4,000 to 1 ng/ml; EC50 against wild type (fold higher EC50 than wild type)",[5],10
